Patent publication US6352723B1, “Brain-derived alkali-soluble immunoregulatory composition” (priority 1999, dated 2002)
“And” between values parts separate entries of the source, which are not always exact repeats. Identical values can stand only once.

B1: chicken ovalbumin (protein, UniProt P01012 2-386, looked up)
Ovalbumin: GSIGAASMEFCFDVFKELKVHHANENIFYCPIAIMSALAMVYLGAKDSTRTQINKVVRFDKLPGFGDSIEAQCGTSVNVHSSLRDILNQITKPNDVYSFSLASRLYAEERYPILPEYLQCVKELYRGGLEPINFQTAADQARELINSWVESQTNGIIRNVLQPSSVDSQTAMVLVNAIVFKGLWEKAFKDEDTQAMPFRVTEQESKPVQMMYQIGLFRVASMASEKMKILELPFASGTMSMLVLLPDEVSGLEQLESIINFEKLTEWTSSNVMEERKIKVYLPRMKMEEKYNLTSVLMAMGITDVFSSSANLSGISSAESLKISQAVHAAHAEINEAGREVVGSAEAGVDAASVSEEFRADHPFLFCIKHIATNAVLFFGRCVSP
notes: Stimulating antigen

System: lymphocytes
Assay: Proliferation assay for stimulated lymphocytes (tritiated thymidine incorporation; % suppression, SI)
Format: cell-based, mice
Conditions: for SI (stimulation index): stimulant alone: OVA 500 μg/ml, PPD 25 μg/ml, ConA 2.5 μg/ml, LPS 10 μg/ml, ionomycin 100 ng/ml with 1 ng/ml PMA

| Molecule | SI (stimulation index) | SI for chicken ovalbumin incubated with brain homogenate (homogenate removed by centrifugation and 0.2μ filter, n=4) | SI for chicken ovalbumin incubated alone (incubated without brain homogenate, n=4) |
| --- | --- | --- | --- |
| Concanavalin A [ConA, reference compound] | 31.2 ± 32.7 | – | – |
| ionomycin at 100 ng/ml with 1 ng/ml phorbol 12-myristate 13 acetate (PMA) [Ionomycin/PMA, reference compound] | 23.6 ± 11.2 | – | – |
| B1 | 8.8 ± 5.8 and 7.9 ± 4.2 | 4.8±1.8 | 4.1±0.9 |
